± gives the uncertainty stated by the source.
Assay: self-splicing fitness, log relative to wild type (ln ratio); higher = more splicing; Tetrahymena group I intron in knt gene, E. coli kanamycin selection, DiMSum; sequences stand for … in CUCUCU…GGAGGGAAAAGUUAUCAGGCAUGCACCUGGUAGCUAGUCUUUAAACCAAUAGAUUGCAUCGGUUUAAAAGGCAAGACCGUCAAAUUGCGGGAAAGGGGUCAACAGCCGUUCAGUACCAAGUCUCAGGGGAAACUUUGAGAUGGCCUUGCAAAGGGUAUGGUAAUAAGCUGACGGACAUGGUCCUAACCACGCAGCCAAGUCCUAAGUCAACAGAUCUUCUGUUGAUAUGGAUGCAGUUCACAGACUAAAUGUCGGUCGGGGAAGAUGUAUUCUUCUCAUAAGAUAUAGUCGGACCUCUCCUUAAUGGGAGCUAGCGGAUGAAGUGAUGCAACACUGGAGCCGCUGGGAACUAAUUUGUAUGCGAAAGUAUAUUGAUUAGUUUUGGAGUACUCGUGGUCG
Outline: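 Fitness was computed with DiMSum as the error-weighted combination of replicate fold changes, kanamycin versus none, each normalised to wild type. The library randomised all eight intron nucleotides of the P1ex region, with the intron placed in the knt kanamycin-resistance gene on pET-22b(+) in E. coli BL21(DE3). Six replicate transformations were grown overnight at 37°C or 30°C on LB agar with or without 25 μg/mL kanamycin, plus 100 μg/mL carbenicillin, 50 μM IPTG and 0.2% rhamnose. Pooled colonies were amplicon-sequenced on an Illumina HiSeq 2500.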

| Sequence | self-splicing fitness (ln) (30 °C) | self-splicing fitness (ln) (37 °C) |
| --- | --- | --- |
| UCCCAGCAAUAUUACGAAAC | -3.52 ± 0.44 | -1.93 ± 0.46 |
| UCCCAGCAAUAUUACGAAGA | -0.348 ± 0.084 | -0.266 ± 0.09 |
| UCCCAGCAAUAUUACGACGG | -2.95 ± 0.15 | -2.15 ± 0.14 |
| UCCCAGCAAUAUUACGAGAG | -3.41 ± 0.29 | -2.14 ± 0.21 |
| UCCCAGCAAUAUUACGAGGG | -3.14 ± 0.17 | -3.02 ± 0.21 |
| UCCCAGCAAUAUUACGCCCG | -3.3 ± 0.21 | -2.65 ± 0.31 |
| UCCCAGCAAUAUUACGCGAG | -3.41 ± 0.14 | -2.91 ± 0.2 |
| UCCCAGCAAUAUUACGCGCC | -3.11 ± 0.35 | -1.29 ± 0.21 |
| UCCCAGCAAUAUUACGGCCG | -3.44 ± 0.27 | -2.02 ± 0.32 |
| UCCCAGCAAUAUUACGGCCU | -2.43 ± 0.16 | -0.901 ± 0.17 |
| UCCCAGCAAUAUUACGGUAC | -3.29 ± 0.2 | -1.71 ± 0.17 |
| UCCCAGCAAUAUUACGUGAG | -1.52 ± 0.08 | -0.669 ± 0.083 |
| UCCGAGCAAUAUUACGAUAU | -1.5 ± 0.22 | -2.46 ± 0.41 |
| UCCGAGCAAUAUUACGCAAG | -3.27 ± 0.26 | -1.77 ± 0.32 |
| UCCGAGCAAUAUUACGCCGA | -1.56 ± 0.23 | -0.047 ± 0.16 |
| UCCGAGCAAUAUUACGCGAU | – | -2.3 ± 0.35 |
| UCCGAGCAAUAUUACGCGUC | -3.74 ± 0.37 | -1.53 ± 0.26 |
| UCCGAGCAAUAUUACGCGUG | -2.6 ± 0.12 | -1.3 ± 0.1 |
| UCCGAGCAAUAUUACGGACC | -2.53 ± 0.28 | -1.47 ± 0.36 |
| UCCGAGCAAUAUUACGGCAG | -3.55 ± 0.38 | -1.44 ± 0.34 |
| UCCGAGCAAUAUUACGGCCA | -0.297 ± 0.1 | -0.233 ± 0.12 |
| UCCGAGCAAUAUUACGGCCU | -3.24 ± 0.3 | -2.33 ± 0.38 |
| UCCGAGCAAUAUUACGGCUC | – | -0.168 ± 0.28 |
| UCCGAGCAAUAUUACGUACA | -2.89 ± 0.33 | – |
| UCCGAGCAAUAUUACGUACC | -2.2 ± 0.2 | -1.93 ± 0.37 |

| Sequence | self-splicing fitness (ln) (30 °C) | self-splicing fitness (ln) (37 °C) |
| --- | --- | --- |
| UCCGAGCAAUAUUACGUUAG | -3.14 ± 0.15 | -2.56 ± 0.24 |
| UCCUAGCAAUAUUACGAACA | -2.9 ± 0.29 | -1.3 ± 0.22 |
| UCCUAGCAAUAUUACGACAU | -3.634 ± 0.026 | -2.16 ± 0.037 |
| UCCUAGCAAUAUUACGACGG | -2.14 ± 0.13 | -0.657 ± 0.14 |
| UCCUAGCAAUAUUACGAGGC | -2.31 ± 0.13 | -3.06 ± 0.26 |
| UCCUAGCAAUAUUACGCCAA | -3.18 ± 0.28 | -2.5 ± 0.25 |
| UCCUAGCAAUAUUACGCUCU | -3.33 ± 0.3 | -2.67 ± 0.3 |
| UCCUAGCAAUAUUACGCUUA | -2.77 ± 0.23 | -3.22 ± 0.35 |
| UCCUAGCAAUAUUACGGAAA | -1.98 ± 0.23 | -2.51 ± 0.29 |
| UCCUAGCAAUAUUACGGCUU | -3.41 ± 0.15 | -2.47 ± 0.2 |
| UCCUAGCAAUAUUACGGGAC | -3.32 ± 0.22 | -2.73 ± 0.2 |
| UCCUAGCAAUAUUACGGUAA | -0.552 ± 0.12 | -0.427 ± 0.11 |
| UCCUAGCAAUAUUACGGUUU | -1.44 ± 0.083 | -1.16 ± 0.12 |
| UCCUAGCAAUAUUACGUACA | -2.45 ± 0.27 | -0.735 ± 0.16 |
| UCCUAGCAAUAUUACGUAGC | -3.05 ± 0.14 | -2.23 ± 0.16 |
| UCCUAGCAAUAUUACGUAUU | -4.31 ± 0.2 | -2.48 ± 0.22 |
| UCCUAGCAAUAUUACGUGUG | -2.41 ± 0.28 | -2.47 ± 0.22 |
| UCCUAGCAAUAUUACGUGUU | -3.7 ± 0.21 | -2.94 ± 0.19 |
| UCCUAGCAAUAUUACGUUGC | -3.64 ± 0.16 | -2.74 ± 0.19 |
| UCCUAGCAAUAUUACGUUUA | -2.15 ± 0.18 | -2.54 ± 0.23 |
| UCGAAGCAAUAUUACGAAAU | – | -2.56 ± 0.41 |
| UCGAAGCAAUAUUACGACAU | -3.755 ± 0.027 | -2.29 ± 0.038 |
| UCGAAGCAAUAUUACGAUAC | -3.33 ± 0.25 | – |
| UCGAAGCAAUAUUACGAUGC | -2.65 ± 0.15 | -1.92 ± 0.18 |
